Laboratory results from publication doi:10.1101/2022.01.31.478542.

Columns and labels:
turbidity = conditions: other: turbidity (light scattering at 340 nm) of cell-free assembly
P04590 = test: turbidity; conditions: other: turbidity (light scattering at 340 nm) of cell-free assembly

| Substance | fold lower turbidity (A340 nm) at 120 min than WT (turbidity) | normalized A340 nm (turbidity) (turbidity) | also measured |
| --- | --- | --- | --- |
| HIV-2 CA-NC protein (Gag amino acids 136-431), CA A41D mutant | 25-fold (A41D) lower than that of WT |  | normalized A340 nm (turbidity), whole time course (turbidity): low turbidity readings (i.e., < 0.36) |
| HIV-2 CA-NC protein (Gag amino acids 136-431), CA G38M mutant | 7.0-fold (i.e., G38M, N127E, I152A) | 0.34 |  |
| HIV-2 CA-NC protein (Gag amino acids 136-431), CA I152A mutant | 7.0-fold (i.e., G38M, N127E, I152A) | 0.65 |  |
| HIV-2 CA-NC protein (Gag amino acids 136-431), CA L19A mutant |  | 1.77 |  |
| HIV-2 CA-NC protein (Gag amino acids 136-431), CA N127E mutant | 7.0-fold (i.e., G38M, N127E, I152A) |  |  |
| HIV-2 CA-NC protein (Gag amino acids 136-431), wild type |  |  | normalized A340 nm (turbidity), peak at 20 min (P04590): peaked at 20 min (i.e., 1.27); normalized A340 nm (turbidity), stable value after the peak (P04590): remained stable (i.e., 0.56) |
